Among the data in article PMC5340296 are FRET efficiency values, retold here.

This experiment addresses YFP–CPR5 (translational fusion of the yellow fluorescent protein to CPR5) (Arabidopsis thaliana) (UniProt Q9LV85). Put plainly: FRET or BRET. (In general: Bioluminescence resonance energy transfer reports proximity on the nanometre scale.)
Chain of UniProt Q9LV85 (Q9LV85 whole entry, the tested form may be a part): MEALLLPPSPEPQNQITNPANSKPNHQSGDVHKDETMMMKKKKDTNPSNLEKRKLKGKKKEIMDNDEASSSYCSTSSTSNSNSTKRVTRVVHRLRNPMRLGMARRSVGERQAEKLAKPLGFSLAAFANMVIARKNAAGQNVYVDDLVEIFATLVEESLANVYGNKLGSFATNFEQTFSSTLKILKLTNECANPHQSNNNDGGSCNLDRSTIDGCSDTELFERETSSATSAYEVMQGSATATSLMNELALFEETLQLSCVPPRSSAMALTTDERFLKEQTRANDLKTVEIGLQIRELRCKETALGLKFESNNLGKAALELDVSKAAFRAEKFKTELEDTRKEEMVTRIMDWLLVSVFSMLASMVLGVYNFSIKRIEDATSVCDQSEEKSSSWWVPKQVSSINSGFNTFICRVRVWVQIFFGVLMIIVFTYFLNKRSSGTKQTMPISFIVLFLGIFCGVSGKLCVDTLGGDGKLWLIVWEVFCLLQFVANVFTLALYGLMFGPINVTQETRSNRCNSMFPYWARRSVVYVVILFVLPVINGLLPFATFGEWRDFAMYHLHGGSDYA

“CFP–sbZIP60 (cyan fluorescent protein fused to spliced full-length bZIP60) (natural protein)” had an FRET efficiency of 10%.
